Data on 3 molecules can be found in article PMC9309721.

As usually defined, the stoichiometry N is the number of molecules, sites or subunits per partner or assembly.

Test [1] concerns the target TFIIB (UniProt Q00403). In words: FLAG co-immunoprecipitation, TFIIB immunoblot. The conditions noted are these: reference: FLAG-WT-HSF1.
The target of test [2] is T1, FLAG-tagged WT-HSF1 (human), Q00613.
T1 chain: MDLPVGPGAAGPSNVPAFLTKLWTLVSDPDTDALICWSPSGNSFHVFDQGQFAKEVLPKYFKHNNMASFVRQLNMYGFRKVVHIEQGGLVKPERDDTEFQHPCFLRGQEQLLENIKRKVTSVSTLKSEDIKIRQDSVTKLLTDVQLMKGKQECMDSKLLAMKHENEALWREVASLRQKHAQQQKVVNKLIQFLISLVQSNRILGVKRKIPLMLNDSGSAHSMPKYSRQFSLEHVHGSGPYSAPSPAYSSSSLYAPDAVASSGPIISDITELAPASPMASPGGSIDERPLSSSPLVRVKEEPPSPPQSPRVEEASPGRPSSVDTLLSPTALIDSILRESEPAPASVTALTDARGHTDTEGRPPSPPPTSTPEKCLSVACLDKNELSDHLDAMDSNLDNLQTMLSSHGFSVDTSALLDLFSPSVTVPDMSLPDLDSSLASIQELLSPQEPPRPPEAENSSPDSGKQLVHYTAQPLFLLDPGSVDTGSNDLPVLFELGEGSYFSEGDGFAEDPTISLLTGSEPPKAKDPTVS
The test is described as follows: cross-linking; HEK-293 cells transfected for 48 h with WT- or T142A-HSF1 with or without AKT1 or CK2; cells fixed with 1 mM EGS for 30 min at RT, quenched with 10 mM Tris pH 7.5, RIPA lysate, SDS/PAGE, immunoblot for HSF1 trimers. The conditions noted are these: remark: other sources report otherwise. For orientation: Immunoblotting shows a protein as a band on a membrane.

Test [3] has the same target. In words: cross-linking + SEC; HEK-293 cells co-expressing AKT1 and WT- or T142A-HSF1, fixed with EGS; RIPA lysate on Superdex 200 Increase 10/300 GL in 50 mM Tris pH 8.0, 150 mM NaCl, 1% NP-40, 4 °C; fractions immunoblotted for HSF1. The conditions noted are these: remark: other sources report otherwise.

Regarding “HSF1 (from UniProt Q00613) FLAG-T527A-HSF1”, in test [1] (sites T527), the “binding against the reference” value was “lost”.
Take “HSF1 (from UniProt Q00613) FLAG-S326A-HSF1”: the “binding against the reference” value in test [1] (sites S326) is “weaker”.

B1: FLAG-tagged WT-HSF1, Q00613 1-529 (natural protein)
chain: MDLPVGPGAAGPSNVPAFLTKLWTLVSDPDTDALICWSPSGNSFHVFDQGQFAKEVLPKYFKHNNMASFVRQLNMYGFRKVVHIEQGGLVKPERDDTEFQHPCFLRGQEQLLENIKRKVTSVSTLKSEDIKIRQDSVTKLLTDVQLMKGKQECMDSKLLAMKHENEALWREVASLRQKHAQQQKVVNKLIQFLISLVQSNRILGVKRKIPLMLNDSGSAHSMPKYSRQFSLEHVHGSGPYSAPSPAYSSSSLYAPDAVASSGPIISDITELAPASPMASPGGSIDERPLSSSPLVRVKEEPPSPPQSPRVEEASPGRPSSVDTLLSPTALIDSILRESEPAPASVTALTDARGHTDTEGRPPSPPPTSTPEKCLSVACLDKNELSDHLDAMDSNLDNLQTMLSSHGFSVDTSALLDLFSPSVTVPDMSLPDLDSSLASIQELLSPQEPPRPPEAENSSPDSGKQLVHYTAQPLFLLDPGSVDTGSNDLPVLFELGEGSYFSEGDGFAEDPTISLLTGSEPPKAKDPTVS
Turning to B1, the stoichiometry N in test [2] and in test [3] was 3 each time.
